Assay results published in patent US20200262920A1 (AMPHIVENA THERAPEUTICS, published 2020).
Values joined by “and” are separate entries in the source; they are usually repeats but may differ in a detail not shown here. Equal values may be shown once.

Key:
human CD3 [1] = target: T1, human CD3 (human, UniProt P07766 23-207; P09693 23-182; P04234 22-171; P20963 22-164); assay: flow cytometry titration, T cells (human CD3+)
T1 construct: whole, on cells; the description names the epsilon chain only 'in certain instances'; also called hu CD3; CD3 on T cells
T1 sequence (P07766 23-207, chain 1 of 4): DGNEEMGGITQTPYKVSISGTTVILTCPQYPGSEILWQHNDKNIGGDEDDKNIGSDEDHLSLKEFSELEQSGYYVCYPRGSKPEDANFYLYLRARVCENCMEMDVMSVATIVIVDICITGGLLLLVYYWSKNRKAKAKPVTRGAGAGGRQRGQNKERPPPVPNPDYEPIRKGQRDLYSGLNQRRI
T1 sequence (P09693 23-182, chain 2 of 4): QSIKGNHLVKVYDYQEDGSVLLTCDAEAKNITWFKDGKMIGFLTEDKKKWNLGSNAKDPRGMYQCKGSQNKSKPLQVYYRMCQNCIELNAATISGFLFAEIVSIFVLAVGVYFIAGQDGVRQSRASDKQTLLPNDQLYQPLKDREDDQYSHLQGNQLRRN
T1 sequence (P04234 22-171, chain 3 of 4): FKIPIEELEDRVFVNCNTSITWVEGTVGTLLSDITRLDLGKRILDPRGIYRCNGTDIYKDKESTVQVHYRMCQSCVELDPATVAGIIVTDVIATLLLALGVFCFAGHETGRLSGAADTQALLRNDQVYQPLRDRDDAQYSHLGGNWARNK
T1 sequence (P20963 22-164, chain 4 of 4): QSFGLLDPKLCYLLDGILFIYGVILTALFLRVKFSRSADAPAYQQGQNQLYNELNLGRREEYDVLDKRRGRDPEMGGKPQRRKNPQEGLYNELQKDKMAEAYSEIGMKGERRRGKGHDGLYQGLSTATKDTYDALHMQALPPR

human CD33 [2] = target: T2, human CD33 (human, UniProt P20138 18-364); assay: flow cytometry, HL-60 cells
T2 construct: whole, on cells; also called huCD33; CD33 on HL-60, KG-1, KG-1a, U-937 cells
T2 sequence (P20138 18-364): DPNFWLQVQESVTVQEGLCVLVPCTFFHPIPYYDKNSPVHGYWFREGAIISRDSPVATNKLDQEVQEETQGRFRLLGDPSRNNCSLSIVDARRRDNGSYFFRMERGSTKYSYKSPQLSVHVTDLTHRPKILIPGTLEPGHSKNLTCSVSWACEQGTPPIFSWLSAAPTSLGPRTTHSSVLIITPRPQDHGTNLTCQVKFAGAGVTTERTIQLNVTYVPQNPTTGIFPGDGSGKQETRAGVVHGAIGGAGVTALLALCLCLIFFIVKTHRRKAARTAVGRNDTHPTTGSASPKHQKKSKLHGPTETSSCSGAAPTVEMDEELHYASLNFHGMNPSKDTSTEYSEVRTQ

human CD33 [3] = target: T2, human CD33; assay: flow cytometry titration, KG-1 cells
Method: (§1) Cells were incubated with 100 μL of serial dilutions of CD33/CD3 2×2 T-cell engagers. After washing three times with FACS buffer the cells were incubated with 0.1 mL of 10 μg/mL mouse monoclonal anti-His antibody in the same buffer for 45 min on ice. After a second washing cycle, the cells were incubated with 0.1 mL of 15 μg/mL FITC-conjugated goat anti-mouse IgG antibodies under the same conditions as before. As a control, cells were incubated with the anti-His IgG followed by the FITC-conjugated goat anti-mouse IgG antibodies without anti-CD33 2×2 T-cell engagers. The cells were then washed again and resuspended in 0.2 mL of FACS buffer containing 2 μg/mL propidium iodide (PI) in order to exclude dead cells. The fluorescence of 1×10⁴ living cells was measured using a Beckman-Coulter FC500 MPL flow cytometer using the MXP software (Beckman-Coulter, Krefeld, Germany) or a Millipore Guava EasyCyte flow cytometer using the Incyte software (Merck Millipore, Schwalbach, Germany). Mean fluorescence intensities of the cell samples were calculated using CXP software (Beckman-Coulter, Krefeld, Germany) or Incyte software (Merck Millipore, Schwalbach, Germany). After subtracting the fluorescence intensity values of the cells stained with the secondary and tertiary reagents alone the values were used for calculation of the KD values with the equation for one-site binding (hyperbola) of the GraphPad Prism (version 6.00 for Windows, GraphPad Software, La Jolla Calif. USA). […]

human CD33 [4] = target: T2, human CD33; assay: flow cytometry titration, U-937 cells
Method: as §1

human CD3 [5] = target: T1, human CD3; assay: flow cytometry, human T-cells
human CD33 [6] = target: T2, human CD33; assay: cell-based or functional assay
cynomolgus CD33 = target: T3, cynomolgus CD33 (cynomolgus, UniProt A0A7N9ICR5 17-359); assay: ratio of KD by flow cytometry on CHO cells expressing cynomolgus CD33 vs human CD33
T3 construct: whole, on cells; also called cynoCD33; cyno CD33
Method: Cells were incubated with 100 μL of serial dilutions of CD33/CD3 2×2 T-cell engagers. After washing three times with FACS buffer the cells were incubated with 0.1 mL of 10 μg/mL mouse monoclonal anti-His antibody in the same buffer for 45 min on ice. After a second washing cycle, the cells were incubated with 0.1 mL of 15 μg/mL FITC-conjugated goat anti-mouse IgG antibodies under the same conditions as before. As a control, cells were incubated with the anti-His IgG followed by the FITC-conjugated goat anti-mouse IgG antibodies without anti-CD33 2×2 T-cell engagers. The cells were then washed again and resuspended in 0.2 mL of FACS buffer containing 2 μg/mL propidium iodide (PI) in order to exclude dead cells. The fluorescence of 1×10⁴ living cells was measured using a Beckman-Coulter FC500 MPL flow cytometer using the MXP software (Beckman-Coulter, Krefeld, Germany) or a Millipore Guava EasyCyte flow cytometer using the Incyte software (Merck Millipore, Schwalbach, Germany). Mean fluorescence intensities of the cell samples were calculated using CXP software (Beckman-Coulter, Krefeld, Germany) or Incyte software (Merck Millipore, Schwalbach, Germany). After subtracting the fluorescence intensity values of the cells stained with the secondary and tertiary reagents alone the values were used for calculation of the KD values with the equation for one-site binding (hyperbola) of the GraphPad Prism (version 6.00 for Windows, GraphPad Software, La Jolla Calif. USA).
CD3 binding affinity and crossreactivity were evaluated in titration and flow cytometric experiments on CD3⁺ Jurkat cells (provided by Dr. Moldenhauer, DKFZ Heidelberg; human acute T-cell leukemia) and the cynomolgus CD3⁺ HSC-F cell line (JCRB, cat.:JCRB 1164). […] The KD ratio of crossreactivity was calculated using the KD values determined on the CHO cell lines expressing either recombinant human or recombinant cynomolgus antigens.

human CD33 [7] = target: T2, human CD33; assay: flow cytometry titration, HL-60 cells
Method: as §1

human CD3 [8] = target: T1, human CD3; assay: cell-based or functional assay
human CD33 [9] = target: T2, human CD33; assay: cell-based or functional assay; remark: listed apart in the source

Row | Binder | Kd (human CD3 [1]) [nM] | Kd (human CD33 [2]) [nM] | Kd (human CD33 [3]) [nM] | Kd (human CD33 [4]) [nM] | Kd (human CD3 [5]) [nM] | KD ratio cynoCD33/huCD33 (cynomolgus CD33) | Kd (human CD33 [7]) [nM] | CD25 Induction EC50 (human CD3 [8]) [nM] | CD69 Induction EC50 (human CD3 [8]) [nM] | T cell Proliferation in PBMC EC50 (human CD3 [8]) [nM] | EC50 on HL-60 (cytotoxicity) (human CD33 [6]) [nM] | EC50, cytotoxicity on HL-60 (human CD33 [9]) | EC50, cytotoxicity on KG-1 (human CD33 [9]) | EC50, cytotoxicity on U-937 (human CD33 [9]) | EC50, cytotoxicity, mean of HL-60, U-937, KG-1 (human CD33 [9])
1 | CD33/CD3 2×2 T-cell engager 23 (bispecific antibody, Non-covalent homodimer) DIQMTQSPSSLSASVGDRVTITCRSSTGAVTTSNYANWVQQKPGKAPKGLIGGTNKRAPGVPSRFSGSLIGTDFTLTISSLQPEDFATYYCALWYSNLWVFGQGTKVEIKGGSGGSQVQLVQSGAEVKKPGSSVKVSCKASGGTFSSYGISWVRQAPGQGLEWMGGIIPIFGSAHYAQKFQGRVTITADESTSTAYMELSSLRSEDTAVYYCAREYYYDSSEWAFDIWGQGTLVTVSSGGSGQSVLTQPPSASGTPGQRVTISCSGSSSNIGSNTVKWYQQLPGTAPKLLIYSNNQRSSGVPDRFSGSKSGSSASLAISGLQSEDEADYYCAAWDDSLNGYVFGGGTKLTVLGGSGGSEVQLVESGGGLVQPGGSLRLSCAASGFTFSTYAMNWVRQAPGKGLEWVGRIRSKYNNYATYYADSVKDRFTISRDDSKNSLYLQMNSLKTEDTAVYYCARHGNFGNSYVSWFAYWGQGTLVTVSS | 97.2 | 0.4 | 1 | 5.1 | 97.2 | 1.9 | 0.4 | 0.041 | 0.017 | 0.037 | 0.0028 |  |  |  | 
2 | CD33/CD3 2×2 T-cell engager 20 (bispecific antibody, Non-covalent homodimer) DIQMTQSPSSLSASVGDRVTITCRSSTGAVTTSNYANWVQQKPGKAPKGLIGGTNKRAPGVPSRFSGSLIGTDFTLTISSLQPEDFATYYCALWYSNLWVFGQGTKVEIKGGSGGSQVQLVQSGAEVKKPGASVKVSCKASGYTFTSYYMHWVRQAPGQGLEWMGIINPSGGSTSYAQKFQGRVTMTRDTSTSTVYMELSSLRSEDTAVYYCARDVVPAAIDYYGMDVWGQGTTVTVSSGGSGQSVLTQPPSASGTPGQRVTISCSGSSSNIGSNTVNWYQQLPGTAPKLLIYSDNQRPSGVPDRFSGSKSGSSASLAISGLQSDDEADYYCATWDDSLNGAVFGGGTKLTVLGGSGGSEVQLVESGGGLVQPGGSLRLSCAASGFTFSTYAMNWVRQAPGKGLEWVGRIRSKYNNYATYYADSVKDRFTISRDDSKNSLYLQMNSLKTEDTAVYYCARHGNFGNSYVSWFAYWGQGTLVTVSSAAAGSHHHHHH | 144 | 4.1 | 7 | 7.2 | 144 | 33.8 | 4.1 | 0.098 | 0.075 | 0.038 | 0.01 |  |  |  | 
3 | CD33/CD3 2×2 T-cell engager 07 (bispecific antibody, Non-covalent homodimer; also called 2×2 T-cell engager 7) DIQMTQSPSSLSASVGDRVTITCRSSTGAVTTSNYANWVQQKPGKAPKALIGGTNKRAPGVPSRFSGSLIGDKATLTISSLQPEDFATYYCALWYSNLWVFGQGTKVEIKGGSGGSQVQLQESGGGVVQPGRSLRLSCAASGFSFSNYGIHWVRQAPGKGLEWVALISYDGNKKFYADSVKGRFAISRDTSKNTVDLQMTSLRPEDTAVYYCAKDRLESAAFDYWGQGTLVTVSSGGSGGSSYELTQPPSVSVAPGQTAMITCGGNNIGSTTVHWYQQKPGQAPVLVVYDDNERPSGIPERFSGSNSGSTATLTINRVEAGDEADYYCQVWDSGSDHVVFGGGTKLTVLGGSGGSEVQLVESGGGLVQPGGSLRLSCAASGFTFSTYAMNWVRQAPGKGLEWVGRIRSKYNNYATYYADSVKDRFTISRDDSKNSLYLQMNSLKTEDTAVYYCARHGNFGNSYVSYFAYWGQGTLVTVSSAAAGSHHHHHH | 49.7 | 13.7 | 47.9 | 47.1 | 49.7 | 45.8 | 13.7 | 0.134 | 0.065 | 0.05 | 0.0178 |  |  |  | 

Binders with a lower Kd (human CD3 [1]), results first:

Row | Kd (human CD3 [1]) [nM] | Kd (human CD33 [2]) [nM] | Kd (human CD33 [3]) [nM] | Kd (human CD33 [4]) [nM] | Kd (human CD3 [5]) [nM] | KD ratio cynoCD33/huCD33 (cynomolgus CD33) | Kd (human CD33 [7]) [nM] | CD25 Induction EC50 (human CD3 [8]) [nM] | CD69 Induction EC50 (human CD3 [8]) [nM] | T cell Proliferation in PBMC EC50 (human CD3 [8]) [nM] | Binder | EC50 on HL-60 (cytotoxicity) (human CD33 [6]) [nM] | EC50, cytotoxicity on HL-60 (human CD33 [9]) | EC50, cytotoxicity on KG-1 (human CD33 [9]) | EC50, cytotoxicity on U-937 (human CD33 [9]) | EC50, cytotoxicity, mean of HL-60, U-937, KG-1 (human CD33 [9])
4 | 2.3 | 5.6 | 12.4 | 39.5 | 2.3 |  | 5.6 |  | 0.057 | 0.264 | CD33/CD3 2×2 T-cell engager 24 (bispecific antibody, Non-covalent homodimer) DIQMTQSPSSLSASVGDRVTITCRSSTGAVTTSNYANWVQQKPGKAPKALIGGTNKRAPGVPSRFSGSLIGDKATLTISSLQPEDFATYYCALWYSNLWVFGQGTKVEIKGGSGGSQVQLVQSGAEVKKPGSSVKVSCKASGGTFDSYAISWVRQAPGQGLEWMGGIIPIFGSAHYSQKFQGRVTITADESTSTAYMELSSLRSEDTAVYYCAREYYYDSSEWAFDIWGQGTLVTVSSGGSGQSVLTQPPSASGTPGQRVTISCSGSSSNIGDNVVNWYQQLPGTAPKLLIYSTNKRPSGVPDRFSGSKSGSSASLAISGLQSEDEADYYCAAWDDSLSAYVFGGGTKLTVLGGSGGSEVQLVESGGGLVQPGGSLRLSCAASGFTFSTYAMNWVRQAPGKGLEWVGRIRSKYNNYATYYADSVKDRFTISRDDSKNSLYLQMNSLKTEDTAVYYCARHGNFGNSYVSYFAYWGQGTLVTVSSAAAGSHHHHHH | 0.0096 |  |  |  | 
5 | 2.1 | 0.3 | 0.3 | 1.2 | 2.1 |  | 0.3 | 0.01 | 0.007 | 0.006 | CD33/CD3 2×2 T-cell engager 14 (bispecific antibody, Non-covalent homodimer) DIQMTQSPSSLSASVGDRVTITCRSSTGAVTTSNYANWVQQKPGKAPKALIGGTNKRAPGVPSRFSGSLIGDKATLTISSLQPEDFATYYCALWYSNLWVFGQGTKVEIKGGSGGSQVQLVQSGAEVKKPGASVKVSCKASGYTFTSYDINWVRQAPGQGLEWMGWMNPNSGNTGFAQKFQGRVTMTRDTSTSTVYMELSSLRSEDTAVYYCARDRANTDFSYGMDVWGQGTLVTVSSGGSGQSVLTQPPSASGTPGQRVTISCSGSRSNIGSNTVNWYQQLPGTAPKLLIYGNNQRPSGVPDRFSGSKSGTSASLAISGLQSEDEADYYCATWDDSLIGWVFGGGTKLTVLGGSGGSEVQLVESGGGLVQPGGSLRLSCAASGFTFSTYAMNWVRQAPGKGLEWVGRIRSKYNNYATYYADSVKDRFTISRDDSKNSLYLQMNSLKTEDTAVYYCARHGNFGNSYVSYFAYWGQGTLVTVSSAAAGSHHHHHH | 0.0016 | 1.6 pM and 168 pg/mL | 2.6 pM and 273 pg/mL | 3.6 pM and 378 pg/mL | 2.6 pM and 273 pg/mL
6 | 1.9 |  | 16.3 | 15.1 |  | 3.1 | 3.4 |  |  |  | CD33/CD3 2×2 T-cell engager 18 (bispecific antibody, Non-covalent homodimer) EVQLVESGGGLVQPGGSLRLSCAASGFTFSTYAMNWVRQAPGKGLEWVGRIRSKYNNYATYYADSVKDRFTISRDDSKNSLYLQMNSLKTEDTAVYYCARHGNFGNSYVSYFAYWGQGTLVTVSSGGSGGSQSVLTQPPSVSGAPGQRVTISCTGSSSNIGAGYDVHWYQQLPGTAPKLLIYGNSNRPSGVPDRFSGSKSGTSASLAITGLQAEDEADYYCQSYDSSLSDVVFGGGTKLTVLGGSGQVQLVQSGAEVKKPGESLKISCKGSGYSFTSYWIGWVRQMPGKGLEWMGIIYPGDSDTRYSPSFQGQVTISADKSISTAYLQWSSLKASDTAMYYCARHKRGSDAFDIWGQGTTVTVSSGGSGGSDIQMTQSPSSLSASVGDRVTITCRSSTGAVTTSNYANWVQQKPGKAPKALIGGTNKRAPGVPSRFSGSLIGDKATLTISSLQPEDFATYYCALWYSNLWVFGQGTKVEIKAAAGSHHHHHH | 0.0063 |  |  |  | 
